# Measurements as given in the supplement of paper PMC5998384.
# Test system: HeLa Kyoto
# Experiment: melting temperature (median over replicates), in situ; higher = more thermally stable
# 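Further: HeLa Kyoto cells synchronized by double thymidine or nocodazole block, proteins quantified by TMT10plex mass spectrometry, three independent biological replicates.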
# DESI2, sequence (chain, as listed by the source): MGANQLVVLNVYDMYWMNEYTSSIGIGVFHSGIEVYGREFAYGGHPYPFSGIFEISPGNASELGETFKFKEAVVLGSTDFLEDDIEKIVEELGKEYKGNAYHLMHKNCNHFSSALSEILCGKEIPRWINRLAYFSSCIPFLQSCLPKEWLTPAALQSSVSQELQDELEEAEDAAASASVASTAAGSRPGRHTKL
# MGST2, sequence (chain, as listed by the source): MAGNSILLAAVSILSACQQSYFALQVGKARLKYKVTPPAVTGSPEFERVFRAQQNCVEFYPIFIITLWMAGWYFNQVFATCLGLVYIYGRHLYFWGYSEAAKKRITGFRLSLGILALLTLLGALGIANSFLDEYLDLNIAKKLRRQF
Substance,melting temperature (cell cycle stage: mitosis),melting temperature (cell cycle stage: G1/S)
MAAHRKHVFVEKVLQRLFPPVPSGQGKREPQTLAVQNPPKKVTSEKVSQKHAEPLTDTGSETPTARRLYTASGPPEGYVPCWPEPSSCGSPENASSGDDTEDQDPHDQPKRRRIRKHKSKKKFKNPNNVLIEQAELEKQQSLLQEKSQRQHTDGTTISKNKKRKLKKKQQIKRKKAAGLAAKAAGVSFMYQPEDSSNEGEGVGEACEEDGVDTSEEDPTLAGEEDVKDTREEDGADASEEDLTRARQEEGADASEEDPTPAGEEDVKDAREEDGVDTIEEDLTRAGEEDGKDTREEDGADASEEDPTWAGEEEGADSGEEDGADASEEDDTITNEKAHSILNFLKSTQEMYFYDGVSRDAASAALADAAEELLDRLASHSMLPSDVSILYHMKTLLLLQDTERLKHALEMFPEHCTMPPDHARVISAFFSYWITHILPEKSSD [ERICH1],52.6 °C,
MAQEVDTAQGAEMRRGAGAARGRASWCWALALLWLAVVPGWSRVSGIPSRRHWPVPYKRFDFRPKPDPYCQAKYTFCPTGSPIPVMEGDDDIEVFRLQAPVWEFKYGDLLGHLKIMHDAIGFRSTLTGKNYTMEWYELFQLGNCTFPHLRPEMDAPFWCNQGAACFFEGIDDVHWKENGTLVQVATISGNMFNQMAKWVKQDNETGIYYETWNVKASPEKGAETWFDSYDCSKFVLRTFNKLAEFGAEFKNIETNYTRIFLYSGEPTYLGNETSVFGPTGNKTLGLAIKRFYYPFKPHLPTKEFLLSLLQIFDAVIVHKQFYLFYNFEYWFLPMKFPFIKITYEEIPLPIRNKTLSGL [CLN5],53.8 °C,
MASGGGGGNTGAGGGPGMGLSLGLGLGLSLGMSEATSEAEEEAATAEAVGRLATTLWLRLRGWEAVLAAAQRLLVWEKPLHSLVTAAALNGLFWLLSSSSLRPFFLLSVSLLAYFLLDLWQPRFLPDVSASSPEEPHSDSEGAGSGARPHLLSVPELCRYLAESWLTFQIHLQELLQYKRQNPAQFCVRVCSGCAVLAVLGHYVPGIMISYIVLLSILLWPLVVYHELIQRMYTRLEPLLMQLDYSMKAEANALHHKHDKRKRQGKNAPPGGDEPLAETESESEAELAGFSPVVDVKKTALALAITDSELSDEEASILESGGFSVSRATTPQLTDVSEDLDQQSLPSEPEETLSRDLGEGEEGELAPPEDLLGRPQALSRQALDSEEEEEDVAAKETLLRLSSPLHFVNTHFNGAGSPPDGVKCSPGGPVETLSPETVSGGLTALPGTLSPPLCLVGSDPAPSPSILPPVPQDSPQPLPAPEEEEALTTEDFELLDQGELEQLNAELGLEPETPPKPPDAPPLGPDIHSLVQSDQEAQAVAEP [FAM134A],55.2 °C,
DESI2,,53.8 °C
MGDEKDSWKVKTLDEILQEKKRRKEQEEKAEIKRLKNSDDRDSKRDSLEEGELRDHRMEITIRNSPYRREDSMEDRGEEDDSLAIKPPQQMSRKEKAHHRKDEKRKEKRRHRSHSAEGGKHARVKEKEREHERRKRHREEQDKARREWERQKRREMAREHSRRERDRLEQLERKRERERKMREQQKEQREQKERERRAEERRKEREARREVSAHHRTMREDYSDKVKASHWSRSPPRPPRERFELGDGRKPGEARPAPAQKPAQLKEEKMEERDLLSDLQDISDSERKTSSAESSSAESGSGSEEEEEEEEEEEEEGSTSEESEEEEEEEEEEEEETGSNSEEASEQSAEEVSEEEMSEDEERENENHLLVVPESRFDRDSGESEEAEEEVGEGTPQSSALTEGDYVPDSPALSPIELKQELPKYLPALQGCRSVEEFQCLNRIEEGTYGVVYRAKDKKTDEIVALKRLKMEKEKEGFPITSLREINTILKAQHPNIVTVREIVVGSNMDKIYIVMNYVEHDLKSLMETMKQPFLPGEVKTLMIQLLRGVKHLHDNWILHRDLKTSNLLLSHAGILKVGDFGLAREYGSPLKAYTPVVVTLWYRAPELLLGAKEYSTAVDMWSVGCIFGELLTQKPLFPGKSEIDQINKVFKDLGTPSEKIWPGYSELPAVKKMTFSEHPYNNLRKRFGALLSDQGFDLMNKFLTYFPGRRISAEDGLKHEYFRETPLPIDPSMFPTWPAKSEQQRVKRGTSPRPPEGGLGYSQLGDDDLKETGFHLTTTNQGASAAGPGFSLKF [CDK11B],50.3 °C,46.5 °C
MELIQDTSRPPLEYVKGVPLIKYFAEALGPLQSFQARPDDLLINTYPKSGTTWVSQILDMIYQGGDLEKCNRAPIYVRVPFLEVNDPGEPSGLETLKDTPPPRLIKSHLPLALLPQTLLDQKVKVVYVARNPKDVAVSYYHFHRMEKAHPEPGTWDSFLEKFMAGEVSYGSWYQHVQEWWELSRTHPVLYLFYEDMKENPKREIQKILEFVGRSLPEETMDFMVQHTSFKEMKKNPMTNYTTVPQELMDHSISPFMRKGMAGDWKTTFTVAQNERFDADYAEKMAGCSLSFRSEL [SULT1A4],49.2 °C,48.5 °C
MRSGEELDGFEGEASSTSMISGASSPYQPTTEPVSQRRGLAGLRCDPDYLRGALGRLKVAQVILALIAFICIETIMACSPCEGLYFFEFVSCSAFVVTGVLLIMFSLNLHMRIPQINWNLTDLVNTGLSAFLFFIASIVLAALNHRAGAEIAAVIFGFLATAAYAVNTFLAVQKWRVSVRQQSTNDYIRARTESRDVDSRPEIQRLDTFSYSTNVTVRKKSPTNLLSLNHWQLA [CMTM4],,58.1 °C
MAPRALPGSAVLAAAVFVGGAVSSPLVAPDNGSSRTLHSRTETTPSPSNDTGNGHPEYIAYALVPVFFIMGLFGVLICHLLKKKGYRCTTEAEQDIEEEKVEKIELNDSVNENSDTVGQIVHYIMKNEANADVLKAMVADNSLYDPESPVTPSTPGSPPVSPGPLSPGGTPGKHVCGHHLHTVGGVVERDVCHRCRHKRWHFIKPTNKSRESRPRRQGEVTVLSVGRFRVTKVEHKSNQKERRSLMSVSGAETVNGEVPATPVKRERSGTE [RELL1],,54.7 °C
MSLRCGDAARTLGPRVFGRYFCSPVRPLSSLPDKKKELLQNGPDLQDFVSGDLADRSTWDEYKGNLKRQKGERLRLPPWLKTEIPMGKNYNKLKNTLRNLNLHTVCEEARCPNIGECWGGGEYATATATIMLMGDTCTRGCRFCSVKTARNPPPLDASEPYNTAKAIAEWGLDYVVLTSVDRDDMPDGGAEHIAKTVSYLKERNPKILVECLTPDFRGDLKAIEKVALSGLDVYAHNVETVPELQSKVRDPRANFDQSLRVLKHAKKVQPDVISKTSIMLGLGENDEQVYATMKALREADVDCLTLGQYMQPTRRHLKVEEYITPEKFKYWEKVGNELGFHYTASGPLVRSSYKAGEFFLKNLVAKRKTKDL [LIAS],53.4 °C,52.1 °C
MGST2,,54.3 °C
RAPGEF6,48.9 °C,47.3 °C
MAEAEESPGDPGTASPRPLFAGLSDISISQDIPVEGEITIPMRSRIREFDSSTLNESVRNTIMRDLKAVGKKFMHVLYPRKSNTLLRDWDLWGPLILCVTLALMLQRDSADSEKDGGPQFAEVFVIVWFGAVTITLNSKLLGGNISFFQSLCVLGYCILPLTVAMLICRLVLLADPGPVNFMVRLFVVIVMFAWSIVASTAFLADSQPPNRRALAVYPVFLFYFVISWMILTFTPQ [YIPF6],54.6 °C,55 °C
MAGAGSAAVSGAGTPVAGPTGRDLFAEGLLEFLRPAVQQLDSHVHAVRESQVELREQIDNLATELCRINEDQKVALDLDPYVKKLLNARRRVVLVNNILQNAQERLRRLNHSVAKETARRRAMLDSGIYPPGSPGK [SNAPIN],54.5 °C,53 °C
MFAKGKGSAVPSDGQAREKLALYVYEYLLHVGAQKSAQTFLSEIRWEKNITLGEPPGFLHSWWCVFWDLYCAAPERRDTCEHSSEAKAFHDYSAAAAPSPVLGNIPPNDGMPGGPIPPGFFQGPPGSQPSPHAQPPPHNPSSMMGPHSQPFMSPRYAGGPRPPIRMGNQPPGGVPGTQPLLPNSMDPTRQQGHPNMGGSMQRMNPPRGMGPMGPGPQNYGSGMRPPPNSLGPAMPGINMGPGAGRPWPNPNSANSIPYSSSSPGTYVGPPGGGGPPGTPIMPSPADSTNSSDNIYTMINPVPPGGSRSNFPMGPGSDGPMGGMGGMEPHHMNGSLGSGDIDGLPKNSPNNISGISNPPGTPRDDGELGGNFLHSFQNDNYSPSMTMSV [SSBP3],,52.4 °C
MAGLEVLFASAAPAITCRQDALVCFLHWEVVTHGYFGLGVGDQPGPNDKKSELLPAGWNNNKDLYVLRYEYKDGSRKLLVKAITVESSMILNVLEYGSQQVADLTLNLDDYIDAEHLGDFHRTYKNSEELRSRIVSGIITPIHEQWEKANVSSPHREFPPATAREVDPLRIPPHHPHTSRQPPWCDPLGPFVVGGEDLDPFGPRRGGMIVDPLRSGFPRALIDPSSGLPNRLPPGAVPPGARFDPFGPIGTSPPGPNPDHLPPPGYDDMYL [PSMF1],53 °C,
MASLKCSTVVCVICLEKPKYRCPACRVPYCSVVCFRKHKEQCNPETRPVEKKIRSALPTKTVKPVENKDDDDSIADFLNSDEEEDRVSLQNLKNLGESATLRSLLLNPHLRQLMVNLDQGEDKAKLMRAYMQEPLFVEFADCCLGIVEPSQNEES [ZNHIT3],52.7 °C,50.4 °C
MGLELFLDLVSQPSRAVYIFAKKNGIPLELRTVDLVKGQHKSKEFLQINSLGKLPTLKDGDFILTESSAILIYLSCKYQTPDHWYPSDLQARARVHEYLGWHADCIRGTFGIPLWVQVLGPLIGVQVPKEKVERNRTAMDQALQWLEDKFLGDRPFLAGQQVTLADLMALEELMQPVALGYELFEGRPRLAAWRGRVEAFLGAELCQEAHSIILSILEQAAKKTLPTPSPEAYQAMLLRIARIP [GSTT2],55.1 °C,54.9 °C
MLLSIGMLMLSATQVYTILTVQLFAFLNLLPVEADILAYNFENASQTFDDLPARFGYRLPAEGLKGFLINSKPENACEPIVPPPVKDNSSGTFIVLIRRLDCNFDIKVLNAQRAGYKAAIVHNVDSDDLISMGSNDIEVLKKIDIPSVFIGESSANSLKDEFTYEKGGHLILVPEFSLPLEYYLIPFLIIVGICLILIVIFMITKFVQDRHRARRNRLRKDQLKKLPVHKFKKGDEYDVCAICLDEYEDGDKLRILPCSHAYHCKCVDPWLTKTKKTCPVCKQKVVPSQGDSDSDTDSSQEENEVTEHTPLLRPLASVSAQSFGALSESRSHQNMTESSDYEEDDNEDTDSSDAENEINEHDVVVQLQPNGERDYNIANTV [RNF13],64.3 °C,57.4 °C
MSSHKGSVVAQGNGAPASNREADTVELAELGPLLEEKGKRVIANPPKAEEEQTCPVPQEEEEEVRVLTLPLQAHHAMEKMEEFVYKVWEGRWRVIPYDVLPDWLKDNDYLLHGHRPPMPSFRACFKSIFRIHTETGNIWTHLLGFVLFLFLGILTMLRPNMYFMAPLQEKVVFGMFFLGAVLCLSFSWLFHTVYCHSEKVSRTFSKLDYSGIALLIMGSFVPWLYYSFYCSPQPRLIYLSIVCVLGISAIIVAQWDRFATPKHRQTRAGVFLGLGLSGVVPTMHFTIAEGFVKATTVGQMGWFFLMAVMYITGAGLYAARIPERFFPGKFDIWFQSHQIFHVLVVAAAFVHFYGVSNLQEFRYGLEGGCTDDTLL [ADIPOR1],,55.6 °C
MWTLGRRAVAGLLASPSPAQAQTLTRVPRPAELAPLCGRRGLRTDIDATCTPRRASSNQRGLNQIWNVKKQSVYLMNLRKSGTLGHPGSLDETTYERLAEETLDSLAEFFEDLADKPYTFEDYDVSFGSGVLTVKLGGDLGTYVINKQTPNKQIWLSSPSSGPKRYDWTGKNWVYSHDGVSLHELLAAELTKALKTKLDLSSLAYSGKDA [FXN],53.3 °C,53 °C
